Measured values published in patent US12104181B2, “Compositions and methods for treating viral infections targeting TRIM7” (THE BOARD OF REGENTS OF THE UNIVERSITY OF TEXAS SYSTEM, priority 2021, dated 2024).

B1: RI NG1: human RING type E3 ligase expressed from lentiviral vector (protein, UniProt Q06587 1-406, looked up)
E3 ubiquitin-protein ligase …: MTTPANAQNASKTWELSLYELHRTPQEAIMDGTEIAVSPRSLHSELMCPICLDMLKNTMTTKECLHRFCSDCIVTALRSGNKECPTCRKKLVSKRSLRPDPNFDALISKIYPSREEYEAHQDRVLIRLSRLHNQQALSSSIEEGLRMQAMHRAQRVRRPIPGSDQTTTMSGGEGEPGEGEGDGEDVSSDSAPDSAPGPAPKRPRGGGAGGSSVGTGGGGTGGVGGGAGSEDSGDRGGTLGGGTLGPPSPPGAPSPPEPGGEIELVFRPHPLLVEKGEYCQTRYVKTTGNATVDHLSKYLALRIALERRQQQEAGEPGGPGGGASDTGGPDGCGGEGGGAGGGDGPEEPALPSLEGVSEKQYTIYIAPGGGAFTTLNGSLTLELVNEKFWKVSRPLELCYAPTKDPK
B2: RNF180: human RING type E3 ligase expressed from lentiviral vector (protein, UniProt Q86T96 1-592, looked up)
E3 ubiquitin-protein ligase …: MKRSKELITKNHSQEETSILRCWKCRKCIASSGCFMEYLENQVIKDKDDSVDAQNICHVWHMNVEALPEWISCLIQKAQWTVGKLNCPFCGARLGGFNFVSTPKCSCGQLAAVHLSKSRTDYQPTQAGRLMRPSVKYLSHPRVQSGCDKEALLTGGGSENRNHRLLNMARNNNDPGRLTEALCLEVRPTYFEMKNEKLLSKASEPKYQLFVPQLVTGRCATRAFHRKSHSLDLNISEKLTLLPTLYEIHSKTTAYSRLNETQPIDLSGLPLQSSKNSYSFQNPSSFDPSMLLQRFSVAPHETQTQRGGEFQCGLEAASVYSDHTNTNNLTFLMDLPSAGRSMPEASDQEEHLSPLDFLHSANFSLGSINQRLNKRERSKLKNLRRKQRRRERWLQKQGKYSGVGLLDHMTLNNEMSTDEDNEYAEEKDSYICAVCLDVYFNPYMCYPCHHIFCEPCLRTLAKDNPSSTPCPLCRTIISRVFFQTELNNATKTFFTKEYLKIKQSFQKSNSAKWPLPSCRKAFHLFGGFRRHAAPVTRRQFPHGAHRMDYLHFEDDSRGWWFDMDMVIIYIYSVNWVIGFIVFCFLCYFFFPF
modifications: lentiviral expression
notes: human RING type E3 ligase expressed from lentiviral vector
B3: MARCH1: human RING type E3 ligase expressed from lentiviral vector (protein, UniProt Q8TCQ1 1-289, looked up)
E3 ubiquitin-protein ligase …: MLGWCEAIARNPHRIPNNTRTPEISGDLADASQTSTLNEKSPGRSASRSSNISKASSPTTGTAPRSQSRLSVCPSTQDICRICHCEGDEESPLITPCRCTGTLRFVHQSCLHQWIKSSDTRCCELCKYDFIMETKLKPLRKWEKLQMTTSERRKIFCSVTFHVIAITCVVWSLYVLIDRTAEEIKQGNDNGVLEWPFWTKLVVVAIGFTGGLVFMYVQCKVYVQLWRRLKAYNRVIFVQNCPDTAKKLEKNFSCNVNTDIKDAVVVPVPQTGANSLPSAEGGPPEVVSV
B4: RNF135: human RING type E3 ligase expressed from lentiviral vector (protein, UniProt Q8IUD6 1-432, looked up)
E3 ubiquitin-protein ligase …: MAGLGLGSAVPVWLAEDDLGCIICQGLLDWPATLPCGHSFCRHCLEALWGARDARRWACPTCRQGAAQQPHLRKNTLLQDLADKYRRAAREIQAGSDPAHCPCPGSSSLSSAAARPRRRPELQRVAVEKSITEVAQELTELVEHLVDIVRSLQNQRPLSESGPDNELSILGKAFSSGVDLSMASPKLVTSDTAAGKIRDILHDLEEIQEKLQESVTWKEAPEAQMQGELLEAPSSSSCPLPDQSHPALRRASRFAQWAIHPTFNLKSLSCSLEVSKDSRTVTVSHRPQPYRWSCERFSTSQVLCSQALSSGKHYWEVDTRNCSHWAVGVASWEMSRDQVLGRTMDSCCVEWKGTSQLSAWHMVKETVLGSDRPGVVGIWLNLEEGKLAFYSVDNQEKLLYECTISASSPLYPAFWLYGLHPGNYLIIKQVKV
modifications: lentiviral expression
notes: as for B2
B5: RNF112: human RING type E3 ligase expressed from lentiviral vector (protein, UniProt Q9ULX5 1-631, looked up)
RING finger protein 112: MPRPALSVTSFCHRLGKRERKQSFMGNSGNSWSHTPFPKLELGLGPQPMAPRELPTCSICLERLRDPISLDCGHDFCIRCFSTHRLPGCEPPCCPECRKICKQKRGLRSLGEKMKLLPQRPLPPALQETCPVRAEPLLLVRINASGGLILRMGAINRCLKHPLARDTPVCLLAVLGEQHSGKSFLLNHLLQGLPGLESGEGGRPRGGEASLQGCRWGANGLARGIWMWSHPFLLGKEGKKVAVFLVDTGDAMSPELSRETRIKLCALTTMLSSYQILSTSQELKDTDLDYLEMFVHVAEVMGKHYGMVPIQHLDLLVRDSSHPNKAGQGHVGNIFQRLSGRYPKVQELLQGKRARCCLLPAPGRRRMNQGHASPGDTDDDFRHLLGAYVSDVLSAAPQHAKSRCQGYWNEGRAVARGDRRLLTGQQLAQEIKNLSGWMGRTGPGFTSPDEMAAQLHDLRKVEAAKREFEEYVRQQDVATKRIFSALRVLPDTMRNLLSTQKDAILARHGVALLCKGRDQTLEALEAELQATAKAFMDSYTMRFCGHLAAVGGAVGAGLMGLAGGVVGAGMAAAALAAEAGMVAAGAAVGATGAAVVGGGVGAGLAATVGCMEKEEDERLLEGDREPLLQEE
modifications: lentiviral expression
notes: as for B2
B6: RNF152: human RING type E3 ligase expressed from lentiviral vector (protein, UniProt Q8N8N0 1-203, looked up)
E3 ubiquitin-protein ligase …: METLSQDSLLECQICFNYYSPRRRPKLLDCKHTCCSVCLQQMRTSQKDVRCPWCRGVTKLPPGFSVSQLPDDPEVLAVIAIPHTSEHTPVFIKLPSNGCYMLPLPISKERALLPGDMGCRLLPGSQQKSVTVVTIPAEQQPLQGGAPQEAVEEEQDRRGVVKSSTWSGVCTVILVACVLVFLLGIVLHNMSCISKRFTVISCG
modifications: lentiviral expression
notes: as for B2
B7: RNF166: human RING type E3 ligase expressed from lentiviral vector (protein, UniProt Q96A37 1-237, looked up)
E3 ubiquitin-protein ligase …: MAMFRSLVASAQQRQPPAGPAGGDSGLEAQYTCPICLEVYHRPVAIGSCGHTFCGECLQPCLQVPSPLCPLCRLPFDPKKVDKATHVEKQLSSYKAPCRGCNKKVTLAKMRVHISSCLKVQEQMANCPKFVPVVPTSQPIPSNIPNRSTFACPYCGARNLDQQELVKHCVESHRSDPNRVVCPICSAMPWGDPSYKSANFLQHLLHRHKFSYDTFVDYSIDEEAAFQAALALSLSEN
modifications: lentiviral expression
notes: as for B2
B8: RNF103: human RING type E3 ligase expressed from lentiviral vector (protein, UniProt O00237 1-685, looked up)
E3 ubiquitin-protein ligase …: MWLKLFFLLLYFLVLFVLARFFEAIVWYETGIFATQLVDPVALSFKKLKTILECRGLGYSGLPEKKDVRELVEKSGDLMEGELYSALKEEEASESVSSTNFSGEMHFYELVEDTKDGIWLVQVIANDRSPLVGKIHWEKMVKKVSRFGIRTGTFNCSSDPRYCRRRGWVRSTLIMSVPQTSTSKGKVMLKEYSGRKIEVEHIFKWITAHAASRIKTIYNAEHLKEEWNKSDQYWLKIYLFANLDQPPAFFSALSIKFTGRVEFIFVNVENWDNKSYMTDIGIYNMPSYILRTPEGIYRYGNHTGEFISLQAMDSFLRSLQPEVNDLFVLSLVLVNLMAWMDLFITQGATIKRFVVLISTLGTYNSLLIISWLPVLGFLQLPYLDSFYEYSLKLLRYSNTTTLASWVRADWMFYSSHPALFLSTYLGHGLLIDYFEKKRRRNNNNDEVNANNLEWLSSLWDWYTSYLFHPIASFQNFPVESDWDEDPDLFLERLAFPDLWLHPLIPTDYIKNLPMWRFKCLGVQSEEEMSEGSQDTENDSESENTDTLSSEKEVFEDKQSVLHNSPGTASHCDAEACSCANKYCQTSPCERKGRSYGSYNTNEDMEPDWLTWPADMLHCTECVVCLENFENGCLLMGLPCGHVFHQNCIVMWLAGGRHCCPVCRWPSYKKKQPYAQHQPLSNDVPS
modifications: lentiviral expression
notes: as for B2
B9: RNF182: human RING type E3 ligase expressed from lentiviral vector (protein, UniProt Q8N6D2 1-247, looked up)
E3 ubiquitin-protein ligase …: MASQPPEDTAESQASDELECKICYNRYNLKQRKPKVLECCHRVCAKCLYKIIDFGDSPQGVIVCPFCRFETCLPDDEVSSLPDDNNILVNLTCGGKGKKCLPENPTELLLTPKRLASLVSPSHTSSNCLVITIMEVQRESSPSLSSTPVVEFYRPASFDSVTTVSHNWTVWNCTSLLFQTSIRVLVWLLGLLYFSSLPLGIYLLVSKKVTLGVVFVSLVPSSLVILMVYGFCQCVCHEFLDCMAPPS
B10: RNF151: human RING type E3 ligase expressed from lentiviral vector (protein, UniProt Q2KHN1 1-245, looked up)
RING finger protein 151: MGGGYDLNLFASPPDSNFVCSVCHGVLKRPARLPCSHIFCKKCILRWLARQKTCPCCRKEVKRKKVVHMNKLRKTIGRLEVKCKNADAGCIVTCPLAHRKGHQDSCPFELTACPNEGCTSQVPRGTLAEHRQHCQQGSQQRCPLGCGATLDPAERARHNCYRELHNAWSVRQERRRPLLLSLLRRVRWLDQATSVVRRELAELSNFLEEDTALLEGAPQEEAEAAPEGNVGAEVVGEPRANIPCK
B11: RNF145: human RING type E3 ligase expressed from lentiviral vector (protein, UniProt Q96MT1 1-663, looked up)
RING finger protein 145: MAAKEKLEAVLNVALRVPSIMLLDVLYRWDVSSFFQQIQRSSLSNNPLFQYKYLALNMHYVGYILSVVLLTLPRQHLVQLYLYFLTALLLYAGHQISRDYVRSELEFAYEGPMYLEPLSMNRFTTALIGQLVVCTLCSCVMKTKQIWLFSAHMLPLLARLCLVPLETIVIINKFAMIFTGLEVLYFLGSNLLVPYNLAKSAYRELVQVVEVYGLLALGMSLWNQLVVPVLFMVFWLVLFALQIYSYFSTRDQPASRERLLFLFLTSIAECCSTPYSLLGLVFTVSFVALGVLTLCKFYLQGYRAFMNDPAMNRGMTEGVTLLILAVQTGLIELQVVHRAFLLSIILFIVVASILQSMLEIADPIVLALGASRDKSLWKHFRAVSLCLFLLVFPAYMAYMICQFFHMDFWLLIIISSSILTSLQVLGTLFIYVLFMVEEFRKEPVENMDDVIYYVNGTYRLLEFLVALCVVAYGVSETIFGEWTVMGSMIIFIHSYYNVWLRAQLGWKSFLLRRDAVNKIKSLPIATKEQLEKHNDICAICYQDMKSAVITPCSHFFHAGCLKKWLYVQETCPLCHCHLKNSSQLPGLGTEPVLQPHAGAEQNVMFQEGTEPPGQEHTPGTRIQEGSRDNNEYIARRPDNQEGAFDPKEYPHSAKDEAHPVESA

System: coxsackievirus B3 (CVB3-GFP)
Type: cell-based
Settings: HeLa cells, replicate R1; for Percent Infected R1: GFP-positive cells within RFP-positive gate

Molecule | Percent Infected R1 [%] | Z score R1
B1 | 92.9 | 0.05
B2 | 93.2 | 0.06
B3 | 97.7 | 0.12
B4 | 86.2 | −0.03
B5 | 86.6 | −0.03
B6 | 97.4 | 0.11
B7 | 94.5 | 0.08
B8 | 96.9 | 0.11
B9 | 97.9 | 0.12
B10 | 92.8 | 0.05
B11 | 94.2 | 0.07
